The source of these data is patent US20200268847A1, “Methods of Treating Newly Diagnosed Multiple Myeloma with a Combination of An Antibody that Specifically Binds CD38, Lenalidomide and Dexamethasone” (Janssen Biotech, Inc., priority 2019, published 2020).

This series concerns patients with newly diagnosed multiple myeloma ineligible for HDC and ASCT. Briefly: MAIA: safety, adverse events graded by NCI-CTCAE version 4, treatment discontinuations.

Source text: Safety will be measured by adverse events, laboratory test results, ECGs, vital sign measurements, physical examination findings, and assessment of ECOG performance status score.
Safety analyses included adverse event assessment graded in severity according to NCI-CTCAE version 4, electrocardiograms, clinical laboratory testing, physical examinations, and vital signs.
The safety population included patients who received any dose of trial treatment.

With “Daratumumab (DARZALEX®): antibody that specifically binds CD38, heavy chain of SEQ ID NO: 9 and light chain of SEQ ID NO: 10 [reference compound]”, the “infusion-related reactions occurring during the first dose” value (% of patients with infusion reactions) was found to be 98.0%. For the same substance, the infusion-related reactions (% of patients, any grade) came to 40.9%. In addition, the “patients who discontinued daratumumab treatment due to an infusion-related reaction” value (grade 4 hypertension) was “one”. For the setting “in vivo”, the “infusion-related reactions, grade 3 or 4 events” value came out at 2.7% and the “infusion-related reactions, grade 5 events” value was “no grade 5 events were reported”.
